Source: the supplement of paper PMC10567573
± gives the standard deviation.

Assay: protein stability index of a GFP-peptide fusion (GPS, HEK-293T) (PSI 1-6); higher = more stable
[1] = treatment: DMSO, c terminus: a fixed tail appended
[2] = treatment: MLN4924 1 uM, 8 h, c terminus: a fixed tail appended
[3] = treatment: DMSO, c terminus: native
[4] = treatment: MLN4924 1 uM, 8 h, c terminus: native
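Note: 24-mer peptide tiles fused after GFP, lentivirally expressed, FACS-sorted into six equal bins by GFP/DsRed ratio, decoded by Illumina sequencing, PSI is the read-weighted mean bin number.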

Sequence: LSAFYLSYFDMLYPEDSSWAAKAP [SPDEF]
- protein stability index [1]: 2.63 ± 0.59
- protein stability index [2]: 2.48 ± 0.52

Sequence: QGGGNGQQQQAMSFAILRIIRLVR [KCNA4]
- protein stability index [1]: 2.46 ± 0.28
- protein stability index [2]: 2.67 ± 0.24

Sequence: STGEAGTDGDHNVYPRPPEPREFS [ZC2HC1C]
- protein stability index [1]: 5.03 ± 0.19
- protein stability index [2]: 5.03 ± 0.16

Sequence: MPEEVHHGEEEVETFAFQAEIAQL [HSP90AB1]
- protein stability index [1]: 5.24 ± 0.28
- protein stability index [2]: 5.16 ± 0.14

Sequence: GTTVTFDDLMGILCKSVLEIERAI [FEM1C]
- protein stability index [1]: 2.31 ± 0.26
- protein stability index [2]: 2.14 ± 0.42

Sequence: GIKSKEAEEYRLKEHYLTFEKSRY [PSD2]
- protein stability index [1]: 3.82 ± 0.093
- protein stability index [2]: 3.94 ± 0.31

Sequence: VQPCSAVHLLLKKVLFALCALNAL [FAM189A2]
- protein stability index [1]: 2.26 ± 0.37
- protein stability index [2]: 2.35 ± 0.6

Sequence: QECLKQLAIKKQQHIDNITQIEDA [TRIM14]
- protein stability index [1]: 4.93 ± 0.19
- protein stability index [2]: 4.72 ± 0.22

Sequence: IKPENILITKQGIIKICDFGFAQI [CDKL4]
- protein stability index [1]: 2.18 ± 0.29
- protein stability index [2]: 2.49 ± 1

Sequence: FLPTALLCAYGFFASLRPSEPFLT [SLC19A2]
- protein stability index [1]: 3.25 ± 0.56
- protein stability index [2]: 3.26 ± 0.59

Sequence: MQRGARLPAEVAGLSQVLLRGGGQ [POMT2]
- protein stability index [1]: 3.6 ± 0.27
- protein stability index [2]: 3.64 ± 0.21

Sequence: VSSNNRLVVTGSGEHASVYQITY [TLE6]
- protein stability index [3]: 2.7 ± 0.26
- protein stability index [4]: 2.68 ± 0.23

Sequence: DEALERCQILELLNAELEEKMMQE [CCDC89]
- protein stability index [1]: 5.17 ± 0.41
- protein stability index [2]: 5.34 ± 0.22

Sequence: EGFLFVFGGQDENKQTLSSGEKYD [GAN]
- protein stability index [1]: 3.11 ± 0.28
- protein stability index [2]: 3.73 ± 0.64

Sequence: TPLQQVSIEEILEEQRVEQQTKLE [LSM1]
- protein stability index [1]: 5.37 ± 0.17
- protein stability index [2]: 5.34 ± 0.29

Sequence: CHLTPSIYTEFPDETLRSGELLNM [INTS3]
- protein stability index [1]: 3.04 ± 0.17
- protein stability index [2]: 2.99 ± 0.24

Sequence: TRFILSKVPSEAPSPMPTHRSYLG [SLC6A17]
- protein stability index [1]: 2.73 ± 0.31
- protein stability index [2]: 2.64 ± 0.26

Sequence: HPANRSCRETGSFLDLFRYRVLLG [SLC22A15]
- protein stability index [1]: 2.48 ± 0.44
- protein stability index [2]: 2.15 ± 0.42

Sequence: LKKSRGKFIKPWESPDEMELDELL [PTPRD]
- protein stability index [1]: 3.52 ± 0.35
- protein stability index [2]: 3.15 ± 0.44

Sequence: RETNKSRGFAFVTFESPADAKDAA [RBMX]
- protein stability index [1]: 4.34 ± 0.32
- protein stability index [2]: 4.39 ± 0.38

Sequence: LLMIPWGSAAKLVCYFTNWAQYRQ [CHIT1]
- protein stability index [1]: 3.04 ± 0.69
- protein stability index [2]: 2.86 ± 0.68

Sequence: DSEEELAAFCPQLDDSTVARELAI [RETREG3]
- protein stability index [1]: 5.12 ± 0.28
- protein stability index [2]: 5.24 ± 0.19

Sequence: GQTPLAVSISISGSSRPCLDFLQE [ASB7]
- protein stability index [1]: 2.83 ± 0.93
- protein stability index [2]: 2.24 ± 0.37

Sequence: DLIDVDLIRGSTFAKAKPEIPWTS [PHTF1]
- protein stability index [1]: 2.25 ± 0.17
- protein stability index [2]: 2.46 ± 0.22

Sequence: KAVVFFVFYLWSAIEIFRYSFYML [HACD3]
- protein stability index [1]: 3.46 ± 0.28
- protein stability index [2]: 3.08 ± 0.32

Sequence: HECGTKYPVEWAKFCCECGIRRMI [ZC2HC1A]
- protein stability index [1]: 2.48 ± 0.3
- protein stability index [2]: 2.71 ± 0.46

Sequence: YPVGWPPVQELPPSLRAPPPGGWP [ZMAT5]
- protein stability index [1]: 2.39 ± 0.88
- protein stability index [2]: 2.83 ± 0.69

Sequence: FLSLHRAHLGEEAHKCLECGKCFS [ZNF263]
- protein stability index [1]: 3.06 ± 0.28
- protein stability index [2]: 3.44 ± 0.37

Sequence: ANFHLNDLEAPHEDDAEGEGEWD [TCF25]
- protein stability index [3]: 5.63 ± 0.14
- protein stability index [4]: 5.39 ± 0.22

Sequence: QGWMNLLNMAKKSVDIVSSHWDLN [PLD5]
- protein stability index [1]: 2.9 ± 0.45
- protein stability index [2]: 3.46 ± 0.69

Sequence: DAERDGVKVPTTLAEYCVKTKAPA [CDC34]
- protein stability index [1]: 5.13 ± 0.067
- protein stability index [2]: 5.02 ± 0.26

Sequence: TLLGNPKKRMRYFDPLRNEYFFDR [KCNA1]
- protein stability index [1]: 2.27 ± 0.29
- protein stability index [2]: 2.3 ± 0.057

Sequence: EAQAFRALVQEKIQKRNQRQSGDR [WAS]
- protein stability index [1]: 4.5 ± 0.12
- protein stability index [2]: 4.5 ± 0.13

Sequence: FLFVLGGEDQWNPNGKHSTNFVSR [KLHL14]
- protein stability index [1]: 2.11 ± 0.15
- protein stability index [2]: 2.27 ± 0.41

Sequence: ETIEGAPPLWAASAAGHLKVVQSL [FEM1C]
- protein stability index [1]: 3.11 ± 0.2
- protein stability index [2]: 3.04 ± 0.46

Sequence: LHIPMYFFLAILSCSEICYTFIIV [OR10K2]
- protein stability index [1]: 3.65 ± 0.48
- protein stability index [2]: 3.18 ± 0.38

Sequence: RDEESFFGERRIPRGRRISVICRS [ALKBH7]
- protein stability index [1]: 3.24 ± 0.24
- protein stability index [2]: 3.65 ± 0.24

Sequence: VVTTEHILVSVAAGVSLSTLEELL [PYCR3]
- protein stability index [1]: 3.04 ± 0.72
- protein stability index [2]: 2.78 ± 0.66

Sequence: GHGMTPLKVAAESCKADVVELLLS [FEM1B]
- protein stability index [1]: 2.29 ± 0.21
- protein stability index [2]: 2.47 ± 0.34

Sequence: KGGYKEFFPQHPNFCEPQDYRPMN [CDC25B]
- protein stability index [1]: 3.52 ± 0.18
- protein stability index [2]: 3.37 ± 0.2

Sequence: LFLMDLSEGELGGPSEPGGTHPED [RHOBTB2]
- protein stability index [1]: 4.45 ± 0.22
- protein stability index [2]: 4.33 ± 0.23

Sequence: VIESFTELSRIVLMRHGMEKIWRP [RAB40C]
- protein stability index [1]: 3.11 ± 1
- protein stability index [2]: 2.6 ± 0.59

Sequence: FKNRLVNIMPYESTRVCLQPIRGV [PTPRD]
- protein stability index [1]: 2.35 ± 0.35
- protein stability index [2]: 2.33 ± 0.47

Sequence: RYSSDTTPLLNGSSQDRMFETMAI [GOSR1]
- protein stability index [1]: 3.29 ± 0.77
- protein stability index [2]: 3.27 ± 0.24

Sequence: GHHERSIMTDLYYLSQTDGAGDWR [FUT8]
- protein stability index [1]: 3.2 ± 0.35
- protein stability index [2]: 3.12 ± 0.24

Sequence: SWSDNERSSSRINIPERASGPEGN [FAM104B]
- protein stability index [1]: 4.79 ± 0.11
- protein stability index [2]: 4.73 ± 0.32

Sequence: KYSVYIYVYFHTKLTSQNSKRVS [R3HDM1]
- protein stability index [3]: 2.55 ± 0.71
- protein stability index [4]: 2.24 ± 0.15

Sequence: TALALEPDAIRSRSNTLRERSQVR [PCDHGC5]
- protein stability index [1]: 4.64 ± 0.14
- protein stability index [2]: 4.69 ± 0.18

Sequence: GCKGFFRRSVRKNHMYSCRFSRQC [HNF4A]
- protein stability index [1]: 2.15 ± 0.18
- protein stability index [2]: 2.27 ± 0.36

Sequence: RRSFLNAHHRSGAQVFPESPESES [GNAS]
- protein stability index [1]: 5.02 ± 0.25
- protein stability index [2]: 5.03 ± 0.11

Sequence: RTGLEKAAAGAVGLERRDWSPSPP [SPDEF]
- protein stability index [1]: 4.55 ± 0.2
- protein stability index [2]: 4.49 ± 0.25

Sequence: EAAEGRNKNEVFYQCPDQMARNPA [FBXO3]
- protein stability index [1]: 5 ± 0.32
- protein stability index [2]: 4.67 ± 0.52

Sequence: DDCSSTIVEDPQTKCEYMLNSMPK [ESRRG]
- protein stability index [1]: 4.87 ± 0.29
- protein stability index [2]: 4.95 ± 0.22

Sequence: FVELIGPKLREETAHMLGVRELRI [CABP4]
- protein stability index [1]: 2.69 ± 0.88
- protein stability index [2]: 2.14 ± 0.88

Sequence: QAQKDPKKDRPLARRKSELPQDPH [PPP2R5C]
- protein stability index [1]: 5.12 ± 0.17
- protein stability index [2]: 5.34 ± 0.17

Sequence: GMPPAGTGMPMMPQQPVMFAQPMM [SNAP91]
- protein stability index [1]: 3.03 ± 0.17
- protein stability index [2]: 3.2 ± 0.34

Sequence: PLCNFNITESFTELARIVLLRHGM [RAB40B]
- protein stability index [1]: 2.8 ± 0.87
- protein stability index [2]: 2.19 ± 0.97

Sequence: EEGSANRRPEDQELESLSAIEAEL [CHGA]
- protein stability index [1]: 5.59 ± 0.14
- protein stability index [2]: 5.45 ± 0.095

Sequence: VEPPGPGDTVVQGDLQETTVVTGL [PBXIP1]
- protein stability index [1]: 5.31 ± 0.4
- protein stability index [2]: 5.15 ± 0.46

Sequence: GPPSRGGHMDDGGYSMNFNMSSSR [RBMX]
- protein stability index [1]: 4.25 ± 0.32
- protein stability index [2]: 3.96 ± 0.34

Sequence: QLYCEKVQGLMKEYLLSFPAGKTP [VPS39]
- protein stability index [1]: 2.27 ± 0.16
- protein stability index [2]: 2.41 ± 0.16

Sequence: LALRTLPGPSWVRGSGPSVLSRLQ [ALKBH7]
- protein stability index [1]: 2.62 ± 0.14
- protein stability index [2]: 2.48 ± 0.3

Sequence: LSKSNKPIHTIILNPHVHLVGDDA [CAMK2D]
- protein stability index [1]: 3.12 ± 0.3
- protein stability index [2]: 2.95 ± 0.48
